We go through 2 molecules from patent publication US20150065436A1, “INHIBITING INTERACTION BETWEEN HIF-1ALPHA AND p300/CBP WITH HYDROGEN BOND SURROGATE-BASED HELICES” (UNIVERSITY OF SOUTHERN CALIFORNIA, priority 2013, published 2015).

For test [1], the target named is coactivator protein p300 (or the homologous CREB binding protein, CBP) (human) (UniProt Q09472). Put plainly: cell-based or functional assay.
The target of test [2] is p300-CH1 (cysteine-histidine rich 1 domain of human coactivator protein p300, amino acid residues 323-423) (human) (UniProt Q09472). Put plainly: tryptophan fluorescence spectroscopy; reference peptide 3.
Chain of p300-CH1 (cysteine-histidine rich 1 domain of human coactivator protein p300, amino acid residues 323-423) (human) (Q09472 323-423 limits assumed): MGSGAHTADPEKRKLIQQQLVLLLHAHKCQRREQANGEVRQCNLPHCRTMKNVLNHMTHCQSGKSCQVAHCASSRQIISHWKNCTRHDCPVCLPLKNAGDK
Test [3] shares this target. Nature of the test: tryptophan (Trp403) fluorescence spectroscopy, peptide titrated into 1 µM 15N-labeled p300-CH1.
Test [4] has the same target. Nature of the test: fluorescence polarization competition; HBS 1 added to preformed complex of 300 nM p300-CH1 and 15 nM Flu-HIF C-TAD.
The target is the same in test [5]. Nature of the test: fluorescence polarization competition: HBS 1 added to the preformed complex of p300-CH1 (300 nM) and Flu-HIF C-TAD (15 nM); displaced ligand: fluorescein-labeled HIF-1α C-TAD786-826.
Test [6] has as its target coactivator protein p300 (or the homologous CREB binding protein, CBP) (human), Q09472. Put plainly: cell-based or functional assay.
The target in test [7] is p300-CH1 (cysteine-histidine rich 1 domain of human coactivator protein p300, amino acid residues 323-423) (human), Q09472. Nature of the test: tryptophan (Trp403) fluorescence spectroscopy, peptide titrated into 1 µM 15N-labeled p300-CH1.
Chain of p300-CH1 (cysteine-histidine rich 1 domain of human coactivator protein p300, amino acid residues 323-423) (human), Q09472 (Q09472 323-423 limits assumed): as above

code X = not defined here

Chain of coactivator protein p300 (or the homologous CREB binding protein, CBP) (human) (Q09472 2-2414 limits assumed): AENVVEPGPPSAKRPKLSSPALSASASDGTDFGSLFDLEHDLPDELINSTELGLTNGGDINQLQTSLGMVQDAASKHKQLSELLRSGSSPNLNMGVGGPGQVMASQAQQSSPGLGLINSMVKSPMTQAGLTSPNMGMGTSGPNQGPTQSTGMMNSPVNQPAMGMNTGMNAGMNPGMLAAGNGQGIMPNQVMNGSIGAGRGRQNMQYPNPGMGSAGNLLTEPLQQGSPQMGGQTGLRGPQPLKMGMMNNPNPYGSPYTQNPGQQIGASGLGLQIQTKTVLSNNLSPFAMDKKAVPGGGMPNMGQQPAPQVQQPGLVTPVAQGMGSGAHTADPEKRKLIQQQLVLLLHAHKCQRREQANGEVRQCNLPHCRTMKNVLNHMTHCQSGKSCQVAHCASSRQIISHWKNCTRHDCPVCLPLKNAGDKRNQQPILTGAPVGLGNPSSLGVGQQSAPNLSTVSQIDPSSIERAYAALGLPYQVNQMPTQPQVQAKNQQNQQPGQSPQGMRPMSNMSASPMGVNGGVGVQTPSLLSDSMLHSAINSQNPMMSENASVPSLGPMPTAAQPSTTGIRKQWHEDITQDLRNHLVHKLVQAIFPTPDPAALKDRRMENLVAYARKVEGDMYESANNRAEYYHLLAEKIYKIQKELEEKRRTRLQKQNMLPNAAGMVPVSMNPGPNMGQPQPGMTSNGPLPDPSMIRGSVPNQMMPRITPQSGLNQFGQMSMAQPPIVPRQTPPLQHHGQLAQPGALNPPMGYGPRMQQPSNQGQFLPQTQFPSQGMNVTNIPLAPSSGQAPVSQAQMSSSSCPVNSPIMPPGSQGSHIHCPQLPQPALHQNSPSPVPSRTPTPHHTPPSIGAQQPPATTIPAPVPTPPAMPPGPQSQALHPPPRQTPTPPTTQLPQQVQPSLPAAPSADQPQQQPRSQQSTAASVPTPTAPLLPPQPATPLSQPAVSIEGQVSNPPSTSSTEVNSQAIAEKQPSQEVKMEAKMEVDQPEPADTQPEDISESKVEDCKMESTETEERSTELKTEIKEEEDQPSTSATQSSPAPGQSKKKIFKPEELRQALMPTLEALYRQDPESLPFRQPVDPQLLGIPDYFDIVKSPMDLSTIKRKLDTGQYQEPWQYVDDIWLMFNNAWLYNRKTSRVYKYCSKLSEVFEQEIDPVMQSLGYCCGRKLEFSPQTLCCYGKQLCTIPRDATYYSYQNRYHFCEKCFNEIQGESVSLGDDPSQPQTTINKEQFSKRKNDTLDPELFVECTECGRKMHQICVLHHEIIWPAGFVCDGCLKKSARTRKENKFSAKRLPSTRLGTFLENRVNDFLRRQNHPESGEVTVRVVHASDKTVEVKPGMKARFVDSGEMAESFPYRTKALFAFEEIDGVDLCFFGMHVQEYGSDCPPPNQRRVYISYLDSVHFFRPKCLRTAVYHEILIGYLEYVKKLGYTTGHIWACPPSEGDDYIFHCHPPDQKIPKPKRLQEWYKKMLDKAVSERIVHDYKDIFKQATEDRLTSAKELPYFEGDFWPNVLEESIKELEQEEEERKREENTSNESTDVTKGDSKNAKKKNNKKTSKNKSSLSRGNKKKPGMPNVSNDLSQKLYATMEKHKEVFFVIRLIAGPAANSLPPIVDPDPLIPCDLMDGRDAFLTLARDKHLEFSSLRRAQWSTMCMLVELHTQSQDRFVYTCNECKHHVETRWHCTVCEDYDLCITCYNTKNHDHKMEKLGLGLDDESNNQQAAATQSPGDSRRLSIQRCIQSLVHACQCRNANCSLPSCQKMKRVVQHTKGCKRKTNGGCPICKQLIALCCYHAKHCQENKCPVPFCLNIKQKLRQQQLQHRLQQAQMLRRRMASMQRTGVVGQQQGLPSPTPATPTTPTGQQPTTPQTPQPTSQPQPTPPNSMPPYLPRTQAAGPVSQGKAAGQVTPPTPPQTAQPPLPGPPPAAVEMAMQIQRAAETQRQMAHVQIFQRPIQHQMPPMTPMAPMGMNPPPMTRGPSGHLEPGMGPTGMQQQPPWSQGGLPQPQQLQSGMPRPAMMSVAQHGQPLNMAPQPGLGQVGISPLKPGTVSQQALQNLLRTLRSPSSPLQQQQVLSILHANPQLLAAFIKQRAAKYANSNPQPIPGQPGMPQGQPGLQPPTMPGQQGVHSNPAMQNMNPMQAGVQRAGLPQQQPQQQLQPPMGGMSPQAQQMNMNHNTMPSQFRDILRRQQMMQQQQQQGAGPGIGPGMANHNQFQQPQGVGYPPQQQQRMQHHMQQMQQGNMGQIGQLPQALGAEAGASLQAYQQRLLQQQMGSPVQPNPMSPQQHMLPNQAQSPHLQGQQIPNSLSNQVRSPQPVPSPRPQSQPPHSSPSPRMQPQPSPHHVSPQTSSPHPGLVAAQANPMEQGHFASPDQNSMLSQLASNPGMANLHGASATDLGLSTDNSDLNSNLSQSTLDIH
Chain of coactivator protein p300 (or the homologous CREB binding protein, CBP) (human), Q09472 (Q09472 2-2414 limits assumed): as above

B1: HBS 1 (peptide)
chain: {code X}-ELARALDQ-NH2
modifications: not fully specified (residue 3, bridges); reading uncertain; also: hydrogen bond surrogate constraint, places not given here
As for B1, in test [1], the expression levels of VEGF, qRT-PCR, hypoxic HeLa cells (% reduction at 10 µM) turned out to be 50; the expression levels of VEGF, qRT-PCR, hypoxic HeLa cells (% reduction at 50 µM) is greater than 60; the inhibition of SLC2A1 (GLUT1) expression, qRT-PCR, hypoxic HeLa cells was in the range of 50 to 60%; the luciferase expression, HRE-luciferase reporter in MDA-MB-231-HRE-Luc cells under hypoxia (% reduction at 50 µM) amounted to 25. In addition, the fold increase in binding affinity over peptide 3 in test [2] is 9 fold. This molecule also returned a Kd in test [3] of 0.69 µM. This molecule also showed a Ki in test [4] of 3.5 µM. In test [5], this molecule yielded an IC50 (read off the curve) of 10 µM.

ELARALDQ (modifications not checked) [Peptide 3] gave a downregulation of SLC2A1 and LOX expression, qRT-PCR, hypoxic HeLa cells in test [6] of 25%. Further, in test [7], the Kd turned out to be 6.06 µM.
